Data from the supplement of paper PMC10567573.

B1: ISL2 (parent)
chain: HYPFLGAMGDHSKKKPGTAMCVGC

Variants of: B1
Experiment: protein stability index of a GFP-peptide fusion (GPS, HEK-293T) (PSI 1-6); higher = more stable
Details: c terminus: a fixed tail appended
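Note: lentivirally expressed fusions sorted by FACS into six bins by GFP to DsRed ratio, PSI derived from sequencing read proportions per bin multiplied by bin number.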

Question: For HYPFLGAMGDHSKKKPLTAMCVGC, which protein stability index is on record?
Answer: 2.1

Question: With HYPFLGAMGDHSKKKPDTAMCVGC as the variant, how does the protein stability index read?
Answer: 3.35

Question: Which protein stability index does the source give for HYPFLGAMGDHSKKKPNTAMCVGC here?
Answer: 3.01

Question: Which protein stability index does the source give for HYPFLGAMGDHSKKKPCTAMCVGC here?
Answer: 3.97

Question: For HYPFLGAMGDHSKKKPQTAMCVGC, which protein stability index is on record?
Answer: 3.46

Question: With HYPFLGAMGDHSKKKPSTAMCVGC as the variant, how does the protein stability index read?
Answer: 2.75

Question: Which protein stability index does the source give for HYPFLGAMGDHSKKKPATAMCVGC here?
Answer: 2.86

Question: With HYPFLGAMGDHSKKKPYTAMCVGC as the variant, how does the protein stability index read?
Answer: 2.58

Question: With HYPFLGAMGDHSKKKPVTAMCVGC as the variant, how does the protein stability index read?
Answer: 2.26

Question: Which protein stability index does the source give for HYPFLGAMGDHSKKKPPTAMCVGC here?
Answer: 2.75

Question: With HYPFLGAMGDHSKKKPMTAMCVGC as the variant, how does the protein stability index read?
Answer: 2.43

Question: For HYPFLGAMGDHSKKKPHTAMCVGC, which protein stability index is on record?
Answer: 3.18

Question: With HYPFLGAMGDHSKKKPETAMCVGC as the variant, how does the protein stability index read?
Answer: 3.44

Question: Which protein stability index does the source give for HYPFLGAMGDHSKKKPFTAMCVGC here?
Answer: 2.46

Question: Which protein stability index does the source give for HYPFLGAMGDHSKKKPGTASCVGC here?
Answer: 3.55

Question: Which protein stability index does the source give for HYPFLGAMGDHSKKKPGTAPCVGC here?
Answer: 3.03

Question: With HYPFLGAMGDHSKKKPGTAVCVGC as the variant, how does the protein stability index read?
Answer: 2.62

Question: For HYPFLGAMGDHSKKKPGTALCVGC, which protein stability index is on record?
Answer: 2.44

Question: Which protein stability index does the source give for HYPFLGAMGDHSKKKPGTAECVGC here?
Answer: 3.62

Question: For HYPFLGAMGDHSKKKPGTAWCVGC, which protein stability index is on record?
Answer: 2.04

Question: With HYPFLGAMGDHSKKKPGTAACVGC as the variant, how does the protein stability index read?
Answer: 3.27

Question: For HYPFLGAMGDHSKKKPGTAFCVGC, which protein stability index is on record?
Answer: 1.87

Question: Which protein stability index does the source give for HYPFLGAMGDHSKKKPGTARCVGC here?
Answer: 3.25

Question: For HYPFLGAMGDHSKKKPGTAQCVGC, which protein stability index is on record?
Answer: 3.09

Question: With HYPFLGAMGDHSKKKPGTATCVGC as the variant, how does the protein stability index read?
Answer: 3.16

Question: With HYPFLGAMGDHSKKKPGTAGCVGC as the variant, how does the protein stability index read?
Answer: 3.03

Question: Which protein stability index does the source give for HYPFLGAMGDHSKKKPGTANCVGC here?
Answer: 3.16

Question: For HYPFLGAMGDHSKKKPGTAKCVGC, which protein stability index is on record?
Answer: 3.7

Question: For HYPFLGAMGDHSKKKPGTAHCVGC, which protein stability index is on record?
Answer: 2.85

Question: With HYPFLGAMGDHSKKKPGTAICVGC as the variant, how does the protein stability index read?
Answer: 2.29

Question: Which protein stability index does the source give for HYPFLGAMGDHSKKKPGTAYCVGC here?
Answer: 1.99

Question: For HYPFLGAMGDHSKKKPGTADCVGC, which protein stability index is on record?
Answer: 3.61

Question: For HYPFLGAMGDHSKKKPGTACCVGC, which protein stability index is on record?
Answer: 3.18

Question: For HYPFLGAMGDHSKKKPGTLMCVGC, which protein stability index is on record?
Answer: 2.56

Question: For HYPFLGAMGDHSKKKPGTSMCVGC, which protein stability index is on record?
Answer: 3.72

Question: For HYPFLGAMGDHSKKKPGTWMCVGC, which protein stability index is on record?
Answer: 1.3

Question: With HYPFLGAMGDHSKKKPGTMMCVGC as the variant, how does the protein stability index read?
Answer: 2.28

Question: With HYPFLGAMGDHSKKKPGTYMCVGC as the variant, how does the protein stability index read?
Answer: 2.12

Question: For HYPFLGAMGDHSKKKPGTPMCVGC, which protein stability index is on record?
Answer: 2.86

Question: With HYPFLGAMGDHSKKKPGTIMCVGC as the variant, how does the protein stability index read?
Answer: 2.16

Question: For HYPFLGAMGDHSKKKPGTDMCVGC, which protein stability index is on record?
Answer: 3.66

Question: With HYPFLGAMGDHSKKKPGTTMCVGC as the variant, how does the protein stability index read?
Answer: 2.76

Question: For HYPFLGAMGDHSKKKPGTRMCVGC, which protein stability index is on record?
Answer: 2.06

Question: Which protein stability index does the source give for HYPFLGAMGDHSKKKPGTHMCVGC here?
Answer: 3.2

Question: With HYPFLGAMGDHSKKKPGTGMCVGC as the variant, how does the protein stability index read?
Answer: 2.32

Question: Which protein stability index does the source give for HYPFLGAMGDHSKKKPGTEMCVGC here?
Answer: 3.29

Question: With HYPFLGAMGDHSKKKPGTQMCVGC as the variant, how does the protein stability index read?
Answer: 2.91

Question: For HYPFLGAMGDHSKKKPGTKMCVGC, which protein stability index is on record?
Answer: 2.8

Question: For HYPFLGAMGDHSKKKPGTVMCVGC, which protein stability index is on record?
Answer: 2.37

Question: Which protein stability index does the source give for HYPFLGAMGDHSKKKPGTNMCVGC here?
Answer: 2.44

Question: Which protein stability index does the source give for HYPFLGAMGDHSKKKPGTFMCVGC here?
Answer: 1.63

Question: For HYPFLGAMGDHSKKKPGTCMCVGC, which protein stability index is on record?
Answer: 4.28

Question: For HYPFLGAMGDHSTKKPGTAMCVGC, which protein stability index is on record?
Answer: 2.8

Question: With HYPFLGAMGDHSVKKPGTAMCVGC as the variant, how does the protein stability index read?
Answer: 2.4

Question: With HYPFLGAMGDHSYKKPGTAMCVGC as the variant, how does the protein stability index read?
Answer: 2.06

Question: With HYPFLGAMGDHSWKKPGTAMCVGC as the variant, how does the protein stability index read?
Answer: 1.9

Question: With HYPFLGAMGDHSKKKPGTAMYVGC as the variant, how does the protein stability index read?
Answer: 2.97

Question: For HYPFLGAMGDHSKKKPGTAMVVGC, which protein stability index is on record?
Answer: 2.72

Question: Which protein stability index does the source give for HYPFLGAMGDHSKKKPGTAMHVGC here?
Answer: 3.04

Question: For HYPFLGAMGDHSKKKPGTAMNVGC, which protein stability index is on record?
Answer: 3.29

Question: With HYPFLGAMGDHSKKKPGTAMPVGC as the variant, how does the protein stability index read?
Answer: 3.59

Question: Which protein stability index does the source give for HYPFLGAMGDHSKKKPGTAMTVGC here?
Answer: 3.71

Question: Which protein stability index does the source give for HYPFLGAMGDHSKKKPGTAMEVGC here?
Answer: 3.39

Question: For HYPFLGAMGDHSKKKPGTAMSVGC, which protein stability index is on record?
Answer: 3.37

Question: For HYPFLGAMGDHSKKKPGTAMAVGC, which protein stability index is on record?
Answer: 2.94

Question: For HYPFLGAMGDHSKKKPGTAMGVGC, which protein stability index is on record?
Answer: 3.12

Question: With HYPFLGAMGDHSKKKPGTAMMVGC as the variant, how does the protein stability index read?
Answer: 2.28

Question: Which protein stability index does the source give for HYPFLGAMGDHSKKKPGTAMFVGC here?
Answer: 2.71

Question: With HYPFLGAMGDHSKKKPGTAMQVGC as the variant, how does the protein stability index read?
Answer: 3.43

Question: Which protein stability index does the source give for HYPFLGAMGDHSKKKPGTAMRVGC here?
Answer: 2.79

Question: For HYPFLGAMGDHSKKKPGTAMIVGC, which protein stability index is on record?
Answer: 2.69

Question: With HYPFLGAMGDHSKKKPGTAMWVGC as the variant, how does the protein stability index read?
Answer: 1.91

Question: Which protein stability index does the source give for HYPFLGAMGDHSKKKPGTAMKVGC here?
Answer: 3.81

Question: With HYPFLGAMGDHSKKKPGTAMLVGC as the variant, how does the protein stability index read?
Answer: 3.31

Question: For HYPFLGAMGDHSKKKPGTAMDVGC, which protein stability index is on record?
Answer: 2.96

Question: Which protein stability index does the source give for HYPFLGAMGDHSKKKPGHAMCVGC here?
Answer: 2.59

Question: With HYPFLGAMGDHSKKKPGVAMCVGC as the variant, how does the protein stability index read?
Answer: 2.25

Question: With HYPFLGAMGDHSKKKPGIAMCVGC as the variant, how does the protein stability index read?
Answer: 2

Question: Which protein stability index does the source give for HYPFLGAMGDHSKKKPGPAMCVGC here?
Answer: 2.65

Question: For HYPFLGAMGDHSKKKPGEAMCVGC, which protein stability index is on record?
Answer: 2.94

Question: For HYPFLGAMGDHSKKKPGQAMCVGC, which protein stability index is on record?
Answer: 2.67

Question: For HYPFLGAMGDHSKKKPGCAMCVGC, which protein stability index is on record?
Answer: 3.02

Question: For HYPFLGAMGDHSKKKPGGAMCVGC, which protein stability index is on record?
Answer: 2.5

Question: Which protein stability index does the source give for HYPFLGAMGDHSKKKPGRAMCVGC here?
Answer: 1.81

Question: With HYPFLGAMGDHSKKKPGDAMCVGC as the variant, how does the protein stability index read?
Answer: 3.4

Question: With HYPFLGAMGDHSKKKPGFAMCVGC as the variant, how does the protein stability index read?
Answer: 2

Question: With HYPFLGAMGDHSKKKPGKAMCVGC as the variant, how does the protein stability index read?
Answer: 2.71

Question: Which protein stability index does the source give for HYPFLGAMGDHSKKKPGWAMCVGC here?
Answer: 1.47

Question: With HYPFLGAMGDHSKKKPGMAMCVGC as the variant, how does the protein stability index read?
Answer: 2.67

Question: Which protein stability index does the source give for HYPFLGAMGDHSKKKPGSAMCVGC here?
Answer: 2.76

Question: For HYPFLGAMGDHSKKKPGLAMCVGC, which protein stability index is on record?
Answer: 2

Question: Which protein stability index does the source give for HYPFLGAMGDHSKKKPGAAMCVGC here?
Answer: 2.62

Question: With HYPFLGAMGDHSKKKPGNAMCVGC as the variant, how does the protein stability index read?
Answer: 2.71

Question: Which protein stability index does the source give for HYPFLGAMGDHSKKKPGYAMCVGC here?
Answer: 2.15
